For one series, the target named is p75-Fc (human) (UniProt P08138). As to the kind of experiment: BLI; Blitz (Forte Bio); 5-mer complex (via Lingo-Fc) or p75-Fc loaded at 50 μg/ml on protein A sensors; ADAM17 ECD (E406A) or D+C in solution; HBS (20 mM Hepes, 150 mM NaCl pH 7.4); apparent KD.
Series [1] deals with neuron-myelin 5-mer signaling complex (NgR1, Lingo-1-Fc, p75, MAG, GT1b-Na) (mouse | human) (UniProt Q9D1T0). The description is as above.
Series [2] deals with the molecule itself. As to the kind of experiment: SEC; individual proteins (Lingo-1, NgR1, p75 31-250) run alone on the SD-200 column, in the presence of GT1b-Na.
Series [3] concerns the target ADAM17 ectodomain (ECD), residues 215-650, active-site mutant E406A (human, UniProt P78536 215-650, E406A). Description: BLI.
Series [4] concerns the target T1, neuronal receptor/co-receptor/p75 complex (Lingo-1-Fc, NgR1, p75, formed with GT1b-Na) (mouse | human, UniProt Q9D1T0 35-516; Q9BZR6 30-430; P08138 31-210).
T1 construct: Lingo-1, mouse, residues 35-516; NgR1, human, residues 30-430; p75, human, residues 31-210 (the version used in the pull-down assays); also called NgR1, Lingo-1, p75 complex; neuronal complex; source: assembled from purified HEK293 proteins on protein A-Sepharose in the presence of GT1b-Na; not shown: Fc, C-terminal, kept; Fc, C-terminal, cleaved; copies: + +
T1 sequence (looked up) 1: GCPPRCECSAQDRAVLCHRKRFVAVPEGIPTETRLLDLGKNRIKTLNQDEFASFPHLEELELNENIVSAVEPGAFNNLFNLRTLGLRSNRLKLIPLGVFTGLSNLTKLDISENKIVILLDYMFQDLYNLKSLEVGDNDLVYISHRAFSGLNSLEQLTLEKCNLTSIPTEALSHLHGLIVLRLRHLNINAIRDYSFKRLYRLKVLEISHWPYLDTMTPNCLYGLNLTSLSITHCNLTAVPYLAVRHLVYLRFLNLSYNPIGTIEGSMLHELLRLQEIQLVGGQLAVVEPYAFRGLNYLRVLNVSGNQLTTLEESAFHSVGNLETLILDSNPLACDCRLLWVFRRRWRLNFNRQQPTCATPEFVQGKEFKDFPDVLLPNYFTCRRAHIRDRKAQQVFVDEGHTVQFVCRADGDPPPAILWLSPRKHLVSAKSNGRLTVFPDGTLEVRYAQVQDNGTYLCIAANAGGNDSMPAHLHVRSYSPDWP
T1 sequence (looked up) 2: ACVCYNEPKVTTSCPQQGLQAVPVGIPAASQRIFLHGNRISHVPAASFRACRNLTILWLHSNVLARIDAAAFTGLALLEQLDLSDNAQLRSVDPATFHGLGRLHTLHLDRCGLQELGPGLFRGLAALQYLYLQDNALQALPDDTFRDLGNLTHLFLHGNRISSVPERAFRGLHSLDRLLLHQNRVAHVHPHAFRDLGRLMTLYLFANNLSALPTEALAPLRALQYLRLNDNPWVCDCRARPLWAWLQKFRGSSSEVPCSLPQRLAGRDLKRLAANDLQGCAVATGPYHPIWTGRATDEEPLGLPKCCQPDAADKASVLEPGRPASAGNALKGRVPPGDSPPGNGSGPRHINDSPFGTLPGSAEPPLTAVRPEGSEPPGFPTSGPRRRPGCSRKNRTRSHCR
T1 sequence (looked up) 3: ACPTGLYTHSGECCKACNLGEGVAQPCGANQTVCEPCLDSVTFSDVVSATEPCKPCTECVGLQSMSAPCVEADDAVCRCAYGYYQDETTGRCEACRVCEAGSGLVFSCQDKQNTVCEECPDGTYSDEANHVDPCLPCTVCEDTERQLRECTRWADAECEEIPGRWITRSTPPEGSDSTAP
Description: pull-down; Lingo-1-Fc as bait on protein A-Sepharose; untagged NgR1, p75 (31-210) and MAG as prey; NgR1 and p75 pre-incubated with GT1b-Na (molar ratio 1:10), with or without GT1b-Na; 10 mM Hepes pH 7.4, 150 mM NaCl, 0.05% Triton-X100; 25°C, 1 h; two washes; SDS-PAGE. To be noted: both partners purified.

Take “ADAM17 D+C (disintegrin + cysteine-rich domain region) (from UniProt P78536 474-646) (domain or fragment)”: the Kd (with p75-Fc (human); in series [1]) was 350 nM in each case.

B1: Lingo-1 ectodomain (35-516) (domain or fragment, mouse, UniProt Q9D1T0 35-516, looked up)
chain: T1 sequence (looked up) 1
notes: Lingo-1 (LINGO-1), mouse, ectodomain, residues 35-516; Used in size-exclusion chromatography; It migrates as a tetramer; source: HEK293, purified (protein A Sepharose, size-exclusion on SD-200)
For B1, in series [2], the “stoichiometry N” value stood at 4.

B2: p75-Fc (Fc fusion)
chain: T1 sequence (looked up) 3
Regarding B2, the Kd in series [3] is greater than 10 µM.

B3: p75 ectodomain (residues 31-250) (domain or fragment, human, UniProt P08138 31-250, looked up)
chain: ACPTGLYTHSGECCKACNLGEGVAQPCGANQTVCEPCLDSVTFSDVVSATEPCKPCTECVGLQSMSAPCVEADDAVCRCAYGYYQDETTGRCEACRVCEAGSGLVFSCQDKQNTVCEECPDGTYSDEANHVDPCLPCTVCEDTERQLRECTRWADAECEEIPGRWITRSTPPEGSDSTAPSTQEPEAPPEQDLIASTVAGVVTTVMGSSQPVVTRGTTDN
notes: p75 (p75 NGF receptor), human, entire ectodomain, residues 31-250; Used in size-exclusion chromatography; migrates as an apparent dimer; One sentence of the methods prints 21-250 for this construct; also called longer version of p75; source: HEK293, purified (protein A Sepharose, size-exclusion on SD-200)
B3: in series [2], the “stoichiometry N” value was 2.

B4: MAG (residues 22-504) (domain or fragment, human, UniProt P20916 22-504, looked up)
chain: WGAWMPSSISAFEGTCVSIPCRFDFPDELRPAVVHGVWYFNSPYPKNYPPVVFKSRTQVVHESFQGRSRLLGDLGLRNCTLLLSNVSPELGGKYYFRGDLGGYNQYTFSEHSVLDIVNTPNIVVPPEVVAGTEVEVSCMVPDNCPELRPELSWLGHEGLGEPAVLGRLREDEGTWVQVSLLHFVPTREANGHRLGCQASFPNTTLQFEGYASMDVKYPPVIVEMNSSVEAIEGSHVSLLCGADSNPPPLLTWMRDGTVLREAVAESLLLELEEVTPAEDGVYACLAENAYGQDNRTVGLSVMYAPWKPTVNGTMVAVEGETVSILCSTQSNPDPILTIFKEKQILSTVIYESELQLELPAVSPEDDGEYWCVAENQYGQRATAFNLSVEFAPVLLLESHCAAARDTVQCLCVVKSNPEPSVAFELPSRNVTVNESEREFVYSERSGLVLTSILTLRGQAQAPPRVICTARNLYGAKSLELPFQ
notes: myelin-associated glycoprotein (MAG), human, residues 22-504; also called myelin-associated glycoprotein; source: HEK293, purified (protein A Sepharose, size-exclusion on SD-200); not shown: Fc, C-terminal, cleaved
For the molecule B4, in series [4], the binding result was “binds”.

Values taken from publication PMC11938383, “Antibodies targeting ADAM17 reverse neurite outgrowth inhibition by myelin-associated inhibitors” (Life Science Alliance, 2025).
